US6342477B1, “Remedies for thrombocytopenia” (Chugai Seiyaku Kabushiki Kaisha, priority 1996, dated 2002)

What was measured:
Type in all cases: in vivo
[1] = system: C57Bl/6N mice; assay: Effectiveness of PTH derivative, daily administration to mouse (peripheral platelet count); settings: 200 μg/kg subcutaneously once a day for six days, blood 24 h after final administration
Protocol: Ten-week old male C57Bl/6N mice as purchased from Japan Charles River Co., Ltd. were used in the experiment.
Drug solutions to be administered were prepared basically from human PTH(1-84) and human PTH(1-34) by the same procedure as in Example 1 to give a drug concentration of 20 μg/mL.
Eighteen mice were divided into three groups, which were administered subcutaneously with the two drug solutions and a control (citrate buffer) for six days on a once-a-day basis in a volume of 10 mL/kg. […] The administration was initiated at 10 a.m.
After 24 h of the final administration, a blood sample was withdrawn from each mouse through the orbital vein. Peripheral corpuscle counts were obtained with an automatic corpuscle counter F-800 (TOA MEDICAL ELECTRONICS CO., LTD)

[2] = system: C57Bl/6N mice; assay: Test for single-dose administration to mouse (peripheral platelet count); settings: single dose 10 μg/kg through the tail vein
Protocol: Nine-week old male C57Bl/6N mice as purchased from Japan Charles River Co. Ltd. were used in the experiment. (Preparation of Drug Solutions to be Administered) Human PTH(1-84) was dissolved in a citrate buffer (pH-5; containing 0.05% of Tween 80) at final concentrations of 1, 0.2 and 0.04 μg/mL so as to prepare the drug solutions to be administered.
Each of the thus prepared drug solutions and a control (citrate buffer) was administered to 15 mice through the tail vein in a volume of 10 mL/kg. […] The administration was initiated at 10 a.m.
After 3, 6 and 9 hours of the administration, five mice were picked up at random from each group of animals and blood samples were withdrawn through the orbital vein. At 10 a.m. on the same day, separate blood samples were taken from untreated mice (four in number) to obtain the pre-administration value. Peripheral corpuscle counts were obtained with an automatic corpuscle counter F-800 (TOA MEDICAL ELECTRONICS CO., LTD.)

[3] = system: Japanese albino rabbits JW/CSK; assay: Test for daily administration to rabbit (platelet count); settings: 200 μg/kg subcutaneously daily
Protocol: Six 12-15 week old male Japanese albino rabbits JW/CSK were used in the experiment. The animals were individually kept in aluminum rabbit bracket cages Rb-1 (350^w×500^d×350^h mm) in a vavarium in a specific pathogen-free environment under the following conditions: temperature, 24±2° C.; humidity, 50±10%; illumination, light turned on at 5:00 and turned off at 19:00; ventilation, 15 changes/hr. Each animal was supplied with 120 g of a radiation-sterilized feed for rabbits RM (purchased from Funahashi Farm) per day. The animals were also allowed to drink to tap water ad libitum from an automatic water feeder.
Human PTH(1-84) was administered in a volume of 2 mL/vial at a concentration of 200 μg/mL. A solvent was also supplied in a volume of 2 mL/vial. Both the drug and the control were stored at −135° C. until use.
PTH (200 μg/kg) was administered to the rabbits subcutaneously at the back of their neck for 13 consecutive days. The solvent was similarly administered in the same volume as the dose of a rh-PTH solution calculated from their body weight.
Blood samples (0.5 mL) were withdrawn from the rabbits through the lateral auricular vein before the administration and on days 2, 6, 9 and 13 during the administration period. […]

[4] = system: C57Bl/6N mice; assay: Test for daily administration to mouse (peripheral platelet count); settings: for platelet count: day 5
Protocol: Nine-week old male C57Bl/6N mice as purchased from Japan Charles River Co., Ltd. were used in the experiment.
Drug solutions to be administered were prepared basically by the same procedure as in Example 1 to give drug concentrations of […].
The mice under test were divided into four groups, which were administered subcutaneously with the three drug solutions and a control (citrate buffer) once a day in a volume of 10 mL/kg. […] The administration was initiated at 10 a.m.
(Blood Sampling and Counting Peripheral Corpuscles) On days 5, 7 and 9 after the start of administration, five or six mice were picked up at random from each group of animals and blood samples were withdrawn through the orbital vein. The sampling of blood was timed to occur 24 h of the final administration. Separate blood samples were taken from untreated mice (five in number) to obtain the value for normal mouse. Peripheral corpuscle counts were obtained with an automatic corpuscle counter F-800 (TOA MEDICAL ELECTRONICS CO., LTD.)

B1: human PTH(1-84) (protein, UniProt P01270 32-115, looked up)
Parathyroid hormone: SVSEIQLMHNLGKHLNSMERVEWLRKKLQDVHNFVALGAPLAPRDAGSQRPRKKEDNVLVESHEKSLGEADKADVNVLTKAKSQ
modifications: Parathyroid hormone
platelet increasing action [1]: platelet increasing action | platelet counts over the control ([2]; 6 h after the administration): significant increase | platelet counts over the control ([2]; 9 h after the administration): significant increase | platelet count relative to the initial level ([3]; day 13): substantially returned to the initial level | platelet count relative to the initial value ([3]; increase from day 2 until day 6): two to four | platelet count ([4]; 200 μg/kg subcutaneously once a day): tendency to increase | platelet count ([4]; 800 μg/kg subcutaneously once a day): tendency to increase | platelet count versus the control ([4]; all treated groups (50, 200, 800 μg/kg subcutaneously once a day), day 7): significantly higher
